Data: the supplement of paper PMC12042874
± gives the uncertainty stated by the source.

Assay: amyloid nucleation score (Sup35N fusion, yeast selection) (log enrichment); library NNK1; higher = more nucleation; inactive = no reads after selection
How it was run: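 The nucleation score, computed with DiMSum, is the log enrichment of output over input reads, centred on the mode score of non-aggregating sequences. Sequences with under 100 input reads were dropped. Reads were generated by Illumina sequencing of plasmid inserts from psi-negative yeast with Sup35N fused to peptides of 20 random codons, induced with 100 μM copper sulfate for 24 hours and grown 7 days at 30°C on medium lacking adenine and uracil.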

Substance | amyloid nucleation score
NLDKNGYRTCNLKISYHMSR | 1.28 ± 0.32
HCILHKANFRGFTHSSYEVG | 4.68 ± 0.1
HTWNPDYVAECFKEFKRLYK | 0.393 ± 0.61
YFCSSGWANVMLLLSVQTNR | 0.173 ± 0.35
YELKQSL | -0.301 ± 0.73
LIKLLRVKRMYASYLFSNKV | -1.33 ± 1.6
SSLWTCREVTDIFIHNCAMI | 1.21 ± 0.79
AARVGVVVF | 0.065 ± 0.41
FFSSNNRWRTLYNLHCSEFA | 0.24 ± 0.56
MGRQEASMKRCTSGDVGGWL | 0.523 ± 0.78
CSLTKQRCYFEQLMSGPPCL | -0.329 ± 0.35
LTGRVFRSYRYGCTGQIAVD | -0.624 ± 0.56
CGKESRVRVKYCVFGIKKWQ | -0.518 ± 0.53
QFEDLHQLYSMCALPDSTKH | -0.366 ± 0.93
NMRVFWSARRQALFQWRIL | 0.807 ± 0.71
FIRFTICALTSKVDFI | 0.811 ± 0.74
IPRGCRFKSRVTVKINSGAG | 1.37 ± 0.9
LTSTDISMGRCAVHQSYLFK | 2.69 ± 0.29
TRFNTSEDHSLDNIEA | -0.542 ± 0.93
APKITGQTSNVGTRA | -0.028 ± 0.52
FSNIWMSTMVPSRVRKARCV | 0.05 ± 0.75
LSFLLEASNHDWDGSLG | inactive
VMRPFWMMMFYFYVEPEALS | -0.584 ± 0.95
RIWLTFTSFIYDNVDRILVQ | -0.2 ± 0.67
NVSKDS | -0.063 ± 0.54
QTEQMFGRVDIVYLPAIWSS | 0.447 ± 0.45

Substance | amyloid nucleation score
RFMYAISSVTRYPMWPGMMQ | 2.45 ± 0.18
GTVPNVRKYPCFLCSMRR | -1.28 ± 1.4
DYFLCKFSTDDPCLVFISWE | inactive
SKSYFSIV | -0.361 ± 0.39
NLSIRCLASFCPTGESWIRV | 0.971 ± 0.79
ILYTNRMCLWSKTSNFLPLR | -0.318 ± 0.29
HNLLM | inactive
FELTVGIWQHWRT | 0.45 ± 0.5
FSDSKLILRRRNPW | -1.56 ± 1.4
RCCALTYPLFKHLG | 0.573 ± 0.43
LNSSIYDLSHTVAGCHPALT | -0.293 ± 1.3
NLVRLILRCSDRAKRFLRAL | -0.218 ± 0.36
SWASKRCSPCCDGSGFPMYL | -1.37 ± 2.7
YAFARCLTHINVVALIVRMC | -1.18 ± 0.64
VRNHVYGLCVSWTAGDKCNR | 5.03 ± 0.087
NMLWSGITKFGGRGLKSMVV | -0.169 ± 0.88
HALTSDRYWKERPTIPRFRF | -0.174 ± 0.36
NSFVTVFLRWKYFVMSDMWP | -0.139 ± 0.25
MVIYR | -0.517 ± 0.75
LTRVWSVTCVCSFGRPYK | 2.13 ± 0.27
KGELLGDWGAIYHWCF | inactive
TVLGTSQGSCGWSNPSRNAR | -0.455 ± 1.7
FSFISKIIESCYGDFLVGDA | -1.21 ± 0.61
SSFCRLLNIMYSRWGGLGTY | inactive
CSKIVYPCSTFTSLFYLFLP | -0.614 ± 0.8
STCNYLDSGGRDRCSFFNCD | 0.078 ± 0.47

Substance | amyloid nucleation score
RLSHRM | -0.994 ± 0.54
AEVTDMGDLFSERMLSVVQI | -0.499 ± 1.9
VALIRGRD | 0.292 ± 0.32
DYKVTRPVDLVFDFGGIVYT | 0.714 ± 0.22
MRHGSKAWQLYRLFKYDFFW | 0.534 ± 0.9
AGSLAM | -0.246 ± 0.48
NLINSIGIVEAWEILPASSR | 0.124 ± 1.2
SCIKNSCGINYLVGQATFHN | 6.499 ± 0.049
CWVCNEKRAFRRPVSNQLRV | -0.146 ± 0.85
TPSIYRNVCDIEGLLSSRYL | 0.36 ± 0.54
QDIQSISWHAFVVESFKSEK | -0.094 ± 0.32
HGLNVTLDVHGESYLHIYVW | -0.036 ± 0.62
MNLYNRNYLYCIYRKETTTT | -0.957 ± 1.4
IWWFGSILFLRQSWYKIWSC | -0.877 ± 0.39
YRSGSMLCNYPSRAVTVCWS | 1.16 ± 0.38
MKDSGCPSGNNTALEGASLI | 0.269 ± 0.49
YIYDIGGLTHATMRCTCR | 0.635 ± 0.49
MTLRLS | 0.375 ± 0.41
MCIFICLPVTVYDNIFHSFL | 6.22 ± 0.096
TERDCRCSFGTVPMCSMGNW | 0.595 ± 0.34
YSADMFRADGLWFRGSRWG | 0.308 ± 0.57
PMNYGSSNA | -0.224 ± 1.7
TLCPLDFHRDTARELCPRGV | 0.049 ± 0.4
FIFCAGCVENNTSSPK | 6.224 ± 0.059
AIPLSDRR | 1.48 ± 0.88
SFDGLYLNSCRFSLPCLLSR | 0.196 ± 0.26

Substance | amyloid nucleation score
MLFPSVSKRLNVSALNCKNP | -0.083 ± 1.4
PVLWT | -0.002 ± 0.53
YRRGKIAWGSTARHETVFIL | 0.336 ± 0.52
NFGNVNFVYVTWMVAESSAC | 5.915 ± 0.057
LHRYNYLVYRSTKCMFGVLI | 0.222 ± 0.52
MHMGFAWMSLIM | inactive
FVRAIMARVGFTFV | 0.569 ± 0.47
LKYCYGTT | 0.171 ± 0.29
MFQVVGRYNGVFLVTEPWTC | inactive
CRLHVNGLVIVCASWKCGA | 3.76 ± 0.1
TISLLTHVFLDVLWCGR | -0.779 ± 0.61
IWVSLDYMKSGNGNFTDSFC | 2.82 ± 0.12
QTSLMMWLRR | inactive
GYSYTCPLS | -0.217 ± 0.36
VFYKYRQGARYDFF | 0.227 ± 0.89
SRHVLLPISFGTV | 0.377 ± 0.61
YRWSLTLNLL | -0.651 ± 0.47
LTRDEGPIEDKNVEARFRVS | 0.098 ± 0.31
NLLHESCRVLYS | 0.398 ± 0.5
CRDVY | 1.92 ± 0.51
EVQSDSSEVRDTEYMDISSW | inactive
VNDWALVLSNLDSNVLSSRT | 0.566 ± 0.24
YVKISVLGSKIYNIS | 5.38 ± 0.093
CRRNGGTLMAGE | 1.21 ± 0.76
ITLCVNRLRFRVKLNHQSSF | inactive
NDLFMESLL | 0.025 ± 0.43

Substance | amyloid nucleation score
RCMLGLLNFIESIHGGR | 4.89 ± 0.095
CDVLELFKNTVGSFGGIVVS | 0.204 ± 0.79
RIWPQIVCDIDIRP | -0.444 ± 0.52
MIGNRY | 0.091 ± 0.26
LSISRCSGRAV | inactive
GAVCLGQIMCSRVPRDVNVK | -0.547 ± 0.49
RITHRFVFTRAFTNGRALLR | 0.405 ± 0.27
SVMFQECFVNEFIGVHRCRD | 6.324 ± 0.047
SNQTLPWYK | 0.043 ± 0.53
KGKTVVSEDGEQCHLGCSRT | -0.079 ± 0.33
VRDMHSHTLGYCRDGMYYFK | -0.403 ± 0.84
KISITSTIVFS | 1.32 ± 0.33
NKMGFFNTISGKRS | -0.556 ± 0.59
GNFMVW | -0.403 ± 0.58
QNLVLVKPEVFGTSRLLCGH | 0.184 ± 0.53
NSRSVVLMSVDFIILGYDKM | 3.56 ± 0.17
TTHLSHIYLLDASYNYKDSR | 0.27 ± 0.36
PVLLRSIIF | -0.346 ± 0.36
TGFLR | 0.12 ± 0.4
SDFGI | -0.647 ± 0.64
FLSVASFTRI | 0.246 ± 0.32
RVETYRSYGAIIEVNRPVYM | 0.625 ± 0.6
DLIGFSWGTIEWLRA | -0.931 ± 0.64
